In patent US20230233707A1 one finds EC50 from CD40 activation experiments (bioluminescent CD40 effector CHO cell assay) data, which are given here for one substance.

The target in this experiment is CD40 (UniProt P25942). Kind of experiment: cell-based or functional assay.

With LOB7/6 (antibody), the EC50 from CD40 activation experiments (bioluminescent CD40 effector CHO cell assay) is -1.47 log(µM).
